In the supplement of paper PMC9112550, “Optimization of the antimicrobial peptide Bac7 by deep mutational scanning” (BMC Biology, 2022):

Test system: Escherichia coli TOP10
Assay: shrunken log2 fold change of peptide-encoding DNA abundance (4.5 h post-induction vs induction); higher = less antimicrobial activity (less host growth inhibition)
Details: time post-induction: 4.5 h; library: site-saturation at positions 5, 18, 19, 20
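Further: peptides expressed intracellularly from a pBAD plasmid library in pooled LB shake-flask culture, induced with 0.3% L-arabinose, DNA abundance read by NGS, three biological replicates, DESeq2 with apeglm shrinkage.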

RRIRRRPPRLPRPRPRPYKCPRP
shrunken log2 fold change: -0.639

RRIRERPPRLPRPRPRPWWEPRP
shrunken log2 fold change: 0.0397

RRIRFRPPRLPRPRPRPFTVPRP
shrunken log2 fold change: -0.246

RRIRTRPPRLPRPRPRPACTPRP
shrunken log2 fold change: 0.212

RRIRYRPPRLPRPRPRPTSIPRP
shrunken log2 fold change: -0.656

RRIRWRPPRLPRPRPRPVRNPRP
shrunken log2 fold change: 0.432

RRIRCRPPRLPRPRPRPIPCPRP
shrunken log2 fold change: -0.489

RRIRERPPRLPRPRPRPQMKPRP
shrunken log2 fold change: -0.568

RRIRQRPPRLPRPRPRPVWPPRP
shrunken log2 fold change: 0.303

RRIRNRPPRLPRPRPRPSPDPRP
shrunken log2 fold change: 0.0143

RRIRYRPPRLPRPRPRPRVKPRP
shrunken log2 fold change: 0.0364

RRIRMRPPRLPRPRPRPKFIPRP
shrunken log2 fold change: -0.182

RRIRLRPPRLPRPRPRPVHCPRP
shrunken log2 fold change: -0.11

RRIRFRPPRLPRPRPRPMLYPRP
shrunken log2 fold change: -0.567

RRIRPRPPRLPRPRPRPNALPRP
shrunken log2 fold change: 0.0933

RRIRRRPPRLPRPRPRPGIMPRP
shrunken log2 fold change: 0.156

RRIRSRPPRLPRPRPRPHPCPRP
shrunken log2 fold change: 0.0687

RRIRTRPPRLPRPRPRPCLNPRP
shrunken log2 fold change: -0.000349

RRIRNRPPRLPRPRPRPYPNPRP
shrunken log2 fold change: -0.3

RRIRDRPPRLPRPRPRPIITPRP
shrunken log2 fold change: -0.0771

RRIRPRPPRLPRPRPRPYAMPRP
shrunken log2 fold change: -0.265

RRIRKRPPRLPRPRPRPSMFPRP
shrunken log2 fold change: -0.15

RRIRARPPRLPRPRPRPKASPRP
shrunken log2 fold change: 0.256

RRIRNRPPRLPRPRPRPPMRPRP
shrunken log2 fold change: 1.05

RRIRIRPPRLPRPRPRPTMYPRP
shrunken log2 fold change: -0.769

RRIRSRPPRLPRPRPRPPYAPRP
shrunken log2 fold change: 0.0164

RRIRIRPPRLPRPRPRPVSIPRP
shrunken log2 fold change: -0.624

RRIRDRPPRLPRPRPRPKLVPRP
shrunken log2 fold change: 0.0305

RRIRFRPPRLPRPRPRPDMDPRP
shrunken log2 fold change: -0.107

RRIRIRPPRLPRPRPRPALNPRP
shrunken log2 fold change: -0.484

RRIRKRPPRLPRPRPRPYPEPRP
shrunken log2 fold change: -0.0874

RRIRGRPPRLPRPRPRPSHTPRP
shrunken log2 fold change: -0.102

RRIRYRPPRLPRPRPRPISPPRP
shrunken log2 fold change: 0.0589

RRIRERPPRLPRPRPRPDDIPRP
shrunken log2 fold change: -0.793

RRIRCRPPRLPRPRPRPEHSPRP
shrunken log2 fold change: 0.0871

RRIRYRPPRLPRPRPRPSYCPRP
shrunken log2 fold change: -0.407

RRIRCRPPRLPRPRPRPMYRPRP
shrunken log2 fold change: -0.319

RRIRIRPPRLPRPRPRPIVLPRP
shrunken log2 fold change: -0.181

RRIRARPPRLPRPRPRPFRVPRP
shrunken log2 fold change: -0.19

RRIRNRPPRLPRPRPRPNEDPRP
shrunken log2 fold change: 0.00927

RRIRNRPPRLPRPRPRPDFQPRP
shrunken log2 fold change: -0.156

RRIRVRPPRLPRPRPRPYLHPRP
shrunken log2 fold change: -0.879

RRIRVRPPRLPRPRPRPPYQPRP
shrunken log2 fold change: -0.3

RRIRRRPPRLPRPRPRPHLSPRP
shrunken log2 fold change: 0.112

RRIRQRPPRLPRPRPRPKNSPRP
shrunken log2 fold change: -0.536

RRIRPRPPRLPRPRPRPKGPPRP
shrunken log2 fold change: 0.641

RRIRPRPPRLPRPRPRPMWFPRP
shrunken log2 fold change: -0.113

RRIRYRPPRLPRPRPRPVWIPRP
shrunken log2 fold change: -1.23

RRIRARPPRLPRPRPRPCGHPRP
shrunken log2 fold change: 0.0628

RRIRFRPPRLPRPRPRPDYPPRP
shrunken log2 fold change: -0.111

RRIRDRPPRLPRPRPRPHGPPRP
shrunken log2 fold change: 0.0119

RRIRYRPPRLPRPRPRPDNQPRP
shrunken log2 fold change: -0.644

RRIRGRPPRLPRPRPRPWWEPRP
shrunken log2 fold change: 0.0256

RRIRGRPPRLPRPRPRPMPSPRP
shrunken log2 fold change: 0.431

RRIRHRPPRLPRPRPRPILGPRP
shrunken log2 fold change: -0.0179

RRIRTRPPRLPRPRPRPCKEPRP
shrunken log2 fold change: -0.00136

RRIRKRPPRLPRPRPRPLLWPRP
shrunken log2 fold change: 0.443

RRIRKRPPRLPRPRPRPLINPRP
shrunken log2 fold change: -0.149

RRIRCRPPRLPRPRPRPFVEPRP
shrunken log2 fold change: -0.507

RRIRWRPPRLPRPRPRPQCQPRP
shrunken log2 fold change: 0.129

RRIRVRPPRLPRPRPRPNYVPRP
shrunken log2 fold change: -0.254

RRIRYRPPRLPRPRPRPKVIPRP
shrunken log2 fold change: -0.102

RRIRCRPPRLPRPRPRPWRAPRP
shrunken log2 fold change: 0.0569

RRIRCRPPRLPRPRPRPANKPRP
shrunken log2 fold change: 0.361

RRIRERPPRLPRPRPRPWPLPRP
shrunken log2 fold change: 0.0261

RRIRDRPPRLPRPRPRPTMIPRP
shrunken log2 fold change: -0.587

RRIRWRPPRLPRPRPRPPSTPRP
shrunken log2 fold change: 0.402

RRIRTRPPRLPRPRPRPNHWPRP
shrunken log2 fold change: 0.0032

RRIRPRPPRLPRPRPRPTIMPRP
shrunken log2 fold change: -0.335

RRIRTRPPRLPRPRPRPCYFPRP
shrunken log2 fold change: -0.616

RRIRNRPPRLPRPRPRPPHSPRP
shrunken log2 fold change: 0.183

RRIRARPPRLPRPRPRPHPFPRP
shrunken log2 fold change: 0.0322

RRIRFRPPRLPRPRPRPLNHPRP
shrunken log2 fold change: -0.608

RRIRQRPPRLPRPRPRPSMYPRP
shrunken log2 fold change: -1.39

RRIRWRPPRLPRPRPRPQTQPRP
shrunken log2 fold change: 0.516

RRIRTRPPRLPRPRPRPMNEPRP
shrunken log2 fold change: -0.172

RRIRYRPPRLPRPRPRPTNFPRP
shrunken log2 fold change: -0.16

RRIRYRPPRLPRPRPRPDQLPRP
shrunken log2 fold change: -0.122

RRIRHRPPRLPRPRPRPTASPRP
shrunken log2 fold change: -0.131

RRIRGRPPRLPRPRPRPPHYPRP
shrunken log2 fold change: 0.523

RRIRGRPPRLPRPRPRPWSIPRP
shrunken log2 fold change: -0.108

RRIRIRPPRLPRPRPRPELVPRP
shrunken log2 fold change: -0.105

RRIRCRPPRLPRPRPRPLKLPRP
shrunken log2 fold change: -0.271

RRIRGRPPRLPRPRPRPRMSPRP
shrunken log2 fold change: 0.28

RRIRGRPPRLPRPRPRPYNSPRP
shrunken log2 fold change: -0.359

RRIRCRPPRLPRPRPRPHDVPRP
shrunken log2 fold change: -0.314

RRIRDRPPRLPRPRPRPICFPRP
shrunken log2 fold change: 0.227

RRIRSRPPRLPRPRPRPNNFPRP
shrunken log2 fold change: -0.667

RRIRHRPPRLPRPRPRPLMSPRP
shrunken log2 fold change: -0.196

RRIRWRPPRLPRPRPRPQRYPRP
shrunken log2 fold change: 0.0066

RRIRCRPPRLPRPRPRPVSKPRP
shrunken log2 fold change: -0.109

RRIRVRPPRLPRPRPRPKCHPRP
shrunken log2 fold change: -0.242

RRIRWRPPRLPRPRPRPGCLPRP
shrunken log2 fold change: 0.792

RRIRHRPPRLPRPRPRPNSEPRP
shrunken log2 fold change: -0.795

RRIRCRPPRLPRPRPRPSACPRP
shrunken log2 fold change: -0.0897

RRIRVRPPRLPRPRPRPRKYPRP
shrunken log2 fold change: -0.0723

RRIRFRPPRLPRPRPRPEFDPRP
shrunken log2 fold change: -0.193

RRIRERPPRLPRPRPRPGSTPRP
shrunken log2 fold change: -0.401

RRIRRRPPRLPRPRPRPDHVPRP
shrunken log2 fold change: 0.101

RRIRVRPPRLPRPRPRPMDMPRP
shrunken log2 fold change: -0.946

RRIRNRPPRLPRPRPRPLTMPRP
shrunken log2 fold change: -0.429

RRIRWRPPRLPRPRPRPNCRPRP
shrunken log2 fold change: 0.0177

RRIRYRPPRLPRPRPRPVLYPRP
shrunken log2 fold change: -0.0955

RRIRERPPRLPRPRPRPGSCPRP
shrunken log2 fold change: -0.0703

RRIRARPPRLPRPRPRPAMYPRP
shrunken log2 fold change: 0.0624

RRIRMRPPRLPRPRPRPPIAPRP
shrunken log2 fold change: 0.826

RRIRGRPPRLPRPRPRPQAKPRP
shrunken log2 fold change: 1.34

RRIRGRPPRLPRPRPRPYYIPRP
shrunken log2 fold change: -0.233

RRIRFRPPRLPRPRPRPFYLPRP
shrunken log2 fold change: -0.787

RRIRPRPPRLPRPRPRPYHPPRP
shrunken log2 fold change: -0.246

RRIRKRPPRLPRPRPRPYFDPRP
shrunken log2 fold change: -0.383

RRIRHRPPRLPRPRPRPPWVPRP
shrunken log2 fold change: -0.101

RRIRLRPPRLPRPRPRPLVGPRP
shrunken log2 fold change: 0.246

RRIRFRPPRLPRPRPRPCKMPRP
shrunken log2 fold change: 0.111

RRIRCRPPRLPRPRPRPWEAPRP
shrunken log2 fold change: 0.0139

RRIRGRPPRLPRPRPRPHRYPRP
shrunken log2 fold change: 0.0948

RRIRRRPPRLPRPRPRPWMPPRP
shrunken log2 fold change: -0.217

RRIRMRPPRLPRPRPRPRVNPRP
shrunken log2 fold change: 1.08

RRIRDRPPRLPRPRPRPHREPRP
shrunken log2 fold change: 0.0506

RRIRARPPRLPRPRPRPKIIPRP
shrunken log2 fold change: -0.287

RRIRRRPPRLPRPRPRPVVIPRP
shrunken log2 fold change: 0.0625

RRIRCRPPRLPRPRPRPYAYPRP
shrunken log2 fold change: -0.208

RRIRSRPPRLPRPRPRPENKPRP
shrunken log2 fold change: -0.125

RRIRTRPPRLPRPRPRPMMKPRP
shrunken log2 fold change: -0.11

RRIRCRPPRLPRPRPRPVGWPRP
shrunken log2 fold change: 0.64

RRIRRRPPRLPRPRPRPCDWPRP
shrunken log2 fold change: 0.156

RRIRMRPPRLPRPRPRPGCDPRP
shrunken log2 fold change: 1.85

RRIRWRPPRLPRPRPRPKLEPRP
shrunken log2 fold change: 0.808

RRIRYRPPRLPRPRPRPDERPRP
shrunken log2 fold change: 0.0108

RRIRQRPPRLPRPRPRPTGEPRP
shrunken log2 fold change: 0.0647

RRIRPRPPRLPRPRPRPILLPRP
shrunken log2 fold change: -0.526

RRIRCRPPRLPRPRPRPQWMPRP
shrunken log2 fold change: -0.0314

RRIRHRPPRLPRPRPRPWVAPRP
shrunken log2 fold change: -0.0296

RRIRWRPPRLPRPRPRPSTWPRP
shrunken log2 fold change: -0.148

RRIRLRPPRLPRPRPRPELCPRP
shrunken log2 fold change: 0.173

RRIRSRPPRLPRPRPRPKYHPRP
shrunken log2 fold change: -0.601

RRIRQRPPRLPRPRPRPSEWPRP
shrunken log2 fold change: -0.0519

RRIRKRPPRLPRPRPRPWPPPRP
shrunken log2 fold change: 0.56

RRIRHRPPRLPRPRPRPQYCPRP
shrunken log2 fold change: -0.00186

RRIRIRPPRLPRPRPRPNRCPRP
shrunken log2 fold change: -0.154

RRIRSRPPRLPRPRPRPHPDPRP
shrunken log2 fold change: -0.0132

RRIRKRPPRLPRPRPRPNDKPRP
shrunken log2 fold change: -0.0282

RRIRDRPPRLPRPRPRPAGHPRP
shrunken log2 fold change: 0.261

RRIRLRPPRLPRPRPRPMRMPRP
shrunken log2 fold change: -0.076

RRIRFRPPRLPRPRPRPLPIPRP
shrunken log2 fold change: 0.165

RRIRQRPPRLPRPRPRPICSPRP
shrunken log2 fold change: -0.0668

RRIRCRPPRLPRPRPRPCNAPRP
shrunken log2 fold change: -0.448

RRIRARPPRLPRPRPRPELTPRP
shrunken log2 fold change: 1.38

RRIRRRPPRLPRPRPRPGHAPRP
shrunken log2 fold change: 0.398

RRIRDRPPRLPRPRPRPYGCPRP
shrunken log2 fold change: 0.141
